Laboratory results from patent publication US20210317225A1 (Genmab, published 2021).
One block for each binder: values may come before it.

Key:
Human CD137 (TNR9_Human) = Human CD137 (TNR9_Human) (human, UniProt Q07011 24-255); test: cell-based or functional assay
Human CD40 = Human CD40 (human, UniProt P25942 21-277); test: cell-based or functional assay
Chain of Human CD40 (P25942 21-277): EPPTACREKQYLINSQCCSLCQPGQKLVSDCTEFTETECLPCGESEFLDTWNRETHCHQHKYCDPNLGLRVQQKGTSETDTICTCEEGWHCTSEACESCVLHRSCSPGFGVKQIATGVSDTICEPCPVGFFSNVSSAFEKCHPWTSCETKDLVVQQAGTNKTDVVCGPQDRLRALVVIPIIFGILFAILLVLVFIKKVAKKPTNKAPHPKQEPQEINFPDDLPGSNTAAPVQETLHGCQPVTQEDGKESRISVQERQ

Chain of Human CD137 (TNR9_Human) (Q07011 24-255): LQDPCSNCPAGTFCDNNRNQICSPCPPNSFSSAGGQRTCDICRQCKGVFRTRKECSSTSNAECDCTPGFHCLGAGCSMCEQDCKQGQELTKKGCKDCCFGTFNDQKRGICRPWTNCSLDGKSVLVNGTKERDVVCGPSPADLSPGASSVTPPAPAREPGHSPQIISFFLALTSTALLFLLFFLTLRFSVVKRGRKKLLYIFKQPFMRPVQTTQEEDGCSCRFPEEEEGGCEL

luciferase activity (RLU) of NF-KB/293/GFP-Luc cells transduced with CD137, incubated with K562_CD40 (Human CD137 (TNR9_Human)): ~100 ng/mL
luciferase activity (RLU) of NF-KB/293/GFP-Luc cells transduced with CD40, incubated with K562_CD137 (Human CD40): ~100 ng/mL
B1: CD40-001-FEALxCD137-001-FEAR (bispecific antibody, human IgG1, kappa)
heavy 1: EVQLQQSGPDLVKPGASVKISCKTSGYTFTEYIMHWVKQSHGKSLEWIGGIIPNNGGTSYNQKFKDKATMTVDKSSSTGYMELRSLTSEDSAVYYCTRREVYGRNYYALDYWGQGTLVTVSSASTKGPSVFPLAPSSKSTSGGTAALGCLVKDYFPEPVTVSWNSGALTSGVHTFPAVLQSSGLYSLSSVVTVPSSSLGTQTYICNVNHKPSNTKVDKRVEPKSCDKTHTCPPCPAPEFEGGPSVFLFPPKPKDTLMISRTPEVTCVVVAVSHEDPEVKFNWYVDGVEVHNAKTKPREEQYNSTYRVVSVLTVLHQDWLNGKEYKCKVSNKALPAPIEKTISKAKGQPREPQVYTLPPSREEMTKNQVSLTCLVKGFYPSDIAVEWESNGQPENNYKTTPPVLDSDGSFLLYSKLTVDKSRWQQGNVFSCSVMHEALHNHYTQKSLSLSPGK
light 1: DIQMTQTTSSLSASLGDRVTITCSASQGINNYLNWYQQKPDGTVKLLIYYTSSLHSGVPSRFSGSGSGTDYSLTISNLEPEDIATYYCQQYSNLPYTFGGGTKLEIKRTVAAPSVFIFPPSDEQLKSGTASVVCLLNNFYPREAKVQWKVDNALQSGNSQESVTEQDSKDSTYSLSSTLTLSKADYEKHKVYACEVTHQGLSSPVTKSFNRGEC
heavy 2: QSVEESGGRLVTPGTPLTLTCTVSGFSLSSYAVSWVRQAPGKGLEWIGVIWNNGATHYATWAKGRFTISKASTTVDLKVTSPTTEDTATYFCARSANDAWSTYSDLWGQGTLVTVSSASTKGPSVFPLAPSSKSTSGGTAALGCLVKDYFPEPVTVSWNSGALTSGVHTFPAVLQSSGLYSLSSVVTVPSSSLGTQTYICNVNHKPSNTKVDKRVEPKSCDKTHTCPPCPAPEFEGGPSVFLFPPKPKDTLMISRTPEVTCVVVAVSHEDPEVKFNWYVDGVEVHNAKTKPREEQYNSTYRVVSVLTVLHQDWLNGKEYKCKVSNKALPAPIEKTISKAKGQPREPQVYTLPPSREEMTKNQVSLTCLVKGFYPSDIAVEWESNGQPENNYKTTPPVLDSDGSFFLYSRLTVDKSRWQQGNVFSCSVMHEALHNHYTQKSLSLSPGK
light 2: DIVMTQTPASVEAAVGGTVTIKCQASQTITNYLSWYQQKPGQPPKLLIYKASTLTSGVSSRFKGSGSGTEFTLTISDLESDDAATYYCQNYYYGSSSGYGFVFGGGTEVVVKRTVAAPSVFIFPPSDEQLKSGTASVVCLLNNFYPREAKVQWKVDNALQSGNSQESVTEQDSKDSTYSLSSTLTLSKADYEKHKVYACEVTHQGLSSPVTKSFNRGEC

luciferase activity (RLU) of NF-KB/293/GFP-Luc cells transduced with CD137, incubated with K562_CD40 (Human CD137 (TNR9_Human)): ~100 ng/mL
luciferase activity (RLU) of NF-KB/293/GFP-Luc cells transduced with CD40, incubated with K562_CD137 (Human CD40): ~100 ng/mL
B2: CD40-001-FEALxCD137-007-FEAR (bispecific antibody, human IgG1, kappa)
heavy 1: B1 heavy 1
light 1: B1 light 1
heavy 2: QSLEESGGRLVTPGTPLTLTCTASGFSLSSYDVSWVRQAPGKGLEYIGFIGSDGSAHYATWVKGRFTISKTSTTVDLKITSPTTEDTATYFCARDWNDYWAHDLWGPGTLVTVSSASTKGPSVFPLAPSSKSTSGGTAALGCLVKDYFPEPVTVSWNSGALTSGVHTFPAVLQSSGLYSLSSVVTVPSSSLGTQTYICNVNHKPSNTKVDKRVEPKSCDKTHTCPPCPAPEFEGGPSVFLFPPKPKDTLMISRTPEVTCVVVAVSHEDPEVKFNWYVDGVEVHNAKTKPREEQYNSTYRVVSVLTVLHQDWLNGKEYKCKVSNKALPAPIEKTISKAKGQPREPQVYTLPPSREEMTKNQVSLTCLVKGFYPSDIAVEWESNGQPENNYKTTPPVLDSDGSFFLYSRLTVDKSRWQQGNVFSCSVMHEALHNHYTQKSLSLSPGK
light 2: AQVLTQTTSPVSAAVGGTVTINCQASQIVTSKSALSWYQQKPGQPPRLLIYKASTLASGVPSRFSGSGSGTQFTLTISDLESDDAATYYCAGGYYNSGDLNPFGGGTEVVVKRTVAAPSVFIFPPSDEQLKSGTASVVCLLNNFYPREAKVQWKVDNALQSGNSQESVTEQDSKDSTYSLSSTLTLSKADYEKHKVYACEVTHQGLSSPVTKSFNRGEC

EC50 for induction of T-cell proliferation (antigen-specific CD8+ T-cell assay, proliferation index curves) (Human CD137 (TNR9_Human)): 5 ng/mL
luciferase activity (RLU) of NF-KB/293/GFP-Luc cells transduced with CD137, incubated with K562_CD40 (Human CD137 (TNR9_Human)): ~100 ng/mL
luciferase activity (RLU) of NF-KB/293/GFP-Luc cells transduced with CD40, incubated with K562_CD137 (Human CD40): ~100 ng/mL
B3: CD40-001-FEALxCD137-005-FEAR (bispecific antibody, human IgG1, kappa)
heavy 1: B1 heavy 1
light 1: B1 light 1
heavy 2: QSVEESGGRLVTPGTPLTLTCTASGFTISDFHVTWVRQAPGKGLEWIGTIITSASTTAYATWARGRFTISKSSTTVNLKIVSPTTEDTATYFCARSTYTDTSGYYFDFWGQGTLVTVSSASTKGPSVFPLAPSSKSTSGGTAALGCLVKDYFPEPVTVSWNSGALTSGVHTFPAVLQSSGLYSLSSVVTVPSSSLGTQTYICNVNHKPSNTKVDKRVEPKSCDKTHTCPPCPAPEFEGGPSVFLFPPKPKDTLMISRTPEVTCVVVAVSHEDPEVKFNWYVDGVEVHNAKTKPREEQYNSTYRVVSVLTVLHQDWLNGKEYKCKVSNKALPAPIEKTISKAKGQPREPQVYTLPPSREEMTKNQVSLTCLVKGFYPSDIAVEWESNGQPENNYKTTPPVLDSDGSFFLYSRLTVDKSRWQQGNVFSCSVMHEALHNHYTQKSLSLSPGK
light 2: AQVLTQTASPVSAAVGGTVIINCQSSQSIYNGNRLSWYQQKPGQPPKLLIYSASTLASGVSSRFKGSGSGTQFTLAISDVQSDDAATYYCLGSYDCDSADCFAFGGGTEVVVERTVAAPSVFIFPPSDEQLKSGTASVVCLLNNFYPREAKVQWKVDNALQSGNSQESVTEQDSKDSTYSLSSTLTLSKADYEKHKVYACEVTHQGLSSPVTKSFNRGEC

luciferase activity (RLU) of NF-KB/293/GFP-Luc cells transduced with CD137, incubated with K562_CD40 (Human CD137 (TNR9_Human)): ~100 ng/mL
luciferase activity (RLU) of NF-KB/293/GFP-Luc cells transduced with CD40, incubated with K562_CD137 (Human CD40): ~100 ng/mL
B4: CD40-001-FEALxCD137-006-FEAR (bispecific antibody, human IgG1, kappa)
heavy 1: B1 heavy 1
light 1: B1 light 1
heavy 2: QSVEESGGRLVTPGTPLTLTCTVSGFSLSSYAMSWVRQAPGKGLEWIGIISTSGITYYASWAKGRFTISKTSTMVDLKITSPTTEDTATYFCARLNGFDDYVRYFDFWGLGTLVTVSSASTKGPSVFPLAPSSKSTSGGTAALGCLVKDYFPEPVTVSWNSGALTSGVHTFPAVLQSSGLYSLSSVVTVPSSSLGTQTYICNVNHKPSNTKVDKRVEPKSCDKTHTCPPCPAPEFEGGPSVFLFPPKPKDTLMISRTPEVTCVVVAVSHEDPEVKFNWYVDGVEVHNAKTKPREEQYNSTYRVVSVLTVLHQDWLNGKEYKCKVSNKALPAPIEKTISKAKGQPREPQVYTLPPSREEMTKNQVSLTCLVKGFYPSDIAVEWESNGQPENNYKTTPPVLDSDGSFFLYSRLTVDKSRWQQGNVFSCSVMHEALHNHYTQKSLSLSPGK
light 2: AIELTQTPSSVSAAVGGTVTINCQASESIASNLAWYQQKPGQPPKLLIYAASYLASGVPSRFKGSGSGTEYTLTISGVQSADAATYYCQSAFYVSSSDNAFGGGTEVVVKRTVAAPSVFIFPPSDEQLKSGTASVVCLLNNFYPREAKVQWKVDNALQSGNSQESVTEQDSKDSTYSLSSTLTLSKADYEKHKVYACEVTHQGLSSPVTKSFNRGEC
